B1: Bunyamwera virus (BUNV) glycoprotein Gc (natural protein)
chain: EEDCWKNEELKEDCVGPLIAPKDCTDKDHKTYLSEASLLATAKKITQVDAENVEILGKTMESAIRVIERQKTYHRMHLLEAVFLNKHCDYYKMFEHNSGYSQVKWRMMIKTQHFDICALQANSPFCAQCIADNSCAQGSWEFDTHMNSTYSSKVDNFKHDFSLFLRIFEAAFPGTAYVHLLTNIKEKKPYQAVSMIEKIKKKFPNNKLLIGYLDFGKYLLGLSHASTYELQQRQLDKLYQPTELTRSGGQQTSLANSVVGQATKECKKYKDVSCLSPRFGIPLEDLISCCDQPNYNIYKKPKKVYKAHDKEETWCINDQHCLVDFVPAEADTVEKLKPMKCWLVDPGKNDDVYSIAIKTCRVVDKGVCTVNSQKWNIIKCDSGPLYYSDHIPGEDTGNDIGHYCVSAGCKTDRYPINPDVVTDCVWEFTSRKSQYIGKISMQSLEDYEKALTDRLTHTLETYSFAPLENLPHIKPVYKYITAQGVENSDGIEGAFITASIPAAGGTSIGYNVRSKDGFPLLDLIVFVKSAVIKSTYNHIYDTGPTISINTKHDEHCTGQCPSNIEHEANWLTFSQERTSRWGCEEFGCLAVNTGCVFGSCQDVIRPETKVYRKAVDEVVILTVCITYPGHTFCTEINAIEPKITEEIELQFKTVDTKTLPYIVAVNNHKLYSGQINDLGTFGQMCGNVQKTNSSILGTGTPKFDYTCHGASRKDIIVRRCYNNNFDSCKLLKEETQLIFNDDHDTITVYNTNHLIGELAIKLILGDIQYKLFTETLDLQIDAKCVGCPDCFESYSCNFQIVSNIDTICSLEGPCDTFHNRISIKAMQQNYAVKLSCQKDPRPSGTFKICNREYTVVFHTVAKDDKIEINVGDQTSFIKEKDDRCKTWLCRVRDEGISVIFEPIKAFFGSYFSIFFYIIVVVVVGFLIIYIFMPMFMKLKEVLKANEKLYLQEIKQK
modifications: N-linked glycan at N624
notes: Glycoprotein Gc of Bunyamwera virus, cut from the M segment polyprotein (Gn-NSm-Gc); ectodomain 478-1382; head, stalk and floor (fusion domain) regions; membrane-anchored in the virion envelope; Native Gc in the envelope of purified virions; also called BUNV Gc
B2: Bunyamwera virus (BUNV) glycoprotein Gn (natural protein, UniProt P04505 17-302, looked up)
chain: SPVITRCFHGGQLIAERKSQTSISEFCIKDDVSMLKSEIVYTKNDTGIFGHSKVFRHWTITDWKACNPVVTAGGSINVIEVDKNLNLVTRNYVCTGDCTITVDRKNAQIIFQTDKLNHFEVTGTTISTGWFKSKASVTLDRTCEHIKVSCGKKTLQFHACFKQHMSCVRFLHRSILPGSMAISICQNIELIIITILALCIFIIMIILTKTYICYVLIPVFMPIAFAYGWAYNRSCKKCTCCGLAYHPFTNCGSYCVCGSKFETSDRMRMHRESGLCQGFKSLRVAR
modifications: N-linked glycan at N60
notes: Glycoprotein Gn of Bunyamwera virus, cut from the M segment polyprotein (Gn-NSm-Gc); ectodomain 17-205; membrane-anchored in the virion envelope; Native Gn in the envelope of purified virions; also called BUNV Gn

Biological target: the molecule itself
Experiment: cryo-EM structure; cryo-electron tomography and subtomogram averaging (PEET, C3 symmetry) of glycoprotein spikes on purified BUNV virions, pH 7.3/no K+, 2 hr at 37 °C; tripod average ~16 Å, floor average ~13 Å (GS-FSC); X-ray head/stalk structures and an AlphaFold Gn-Gc model fitted into the maps

Row | Protein | stoichiometry N
1 | B1 | 3
2 | B2 | 3

From article PMC10514341, “Organisation of the orthobunyavirus tripodal spike and the structural changes induced by low pH and K^+ during entry” (Nature Communications, 2023)
